Source: patent publication US6818749
Positions count from the first letter of the chain named.

B1: HuCC49 CDR variant H-2 (antibody, V domains shown)
VH: QVQLVQSGAEVVKPGASVKISCKASGYTFTDHAIHWVKQNPGQRLEWIGWINAGNGNTKYSQKFQGKATLTADTSASTAYVELSSLRSEDTAVYFCTRSLNMAYWGQGTLVTVSS
VL: DIVMSQSPDSLAVSLGERVTLNCKSSQSLLYSGNQKNYLAWYQQKPGQSPKLLIYWASARESGVPDRFSGSGSGTDFTLTISSVQAEDVAVYYCQQYYSYPLTFGAGTKLELK
B2: HuCC49 CDR variant L-1 (antibody, V domains shown)
VH: QVQLVQSGAEVVKPGASVKISCKASGYTFTDHAIHWVKQNPGQRLEWIGYFSPGNDDFKYNERFKGKATLTADTSASTAYVELSSLRSEDTAVYFCTRSLNMAYWGQGTLVTVSS
VL: B1 VL with L29V, G33S, Q35S
B3: HuCC49 CDR variant L-2 (antibody, V domains shown)
VH: B2 VH
VL: B1 VL with A59T
B4: HuCC49 CDR variant H-3 (antibody, V domains shown)
VH: QVQLVQSGAEVVKPGASVKISCKASGYTFTDHAIHWVKQNPGQRLEWIGYFSPGNDDFKYNERFKGKATLTADTSASTAYVELSSLRSEDTAVYFCTRGGYYGSGSGSNYWGQGTLVTVSS
VL: B1 VL
B5: HuCC49 CDR variant L-1,2 (antibody, V domains shown)
VH: B2 VH
VL: B1 VL with L29V, G33S, Q35S, A59T
B6: HuCC49 CDR variant L-3 (antibody, V domains shown)
VH: B2 VH
VL: B1 VL with Y100T, L102Y, T103S
B7: HuCC49 CDR variant H-1 (antibody, V domains shown)
VH: B2 VH with D31S, H32Y, I34M
VL: B1 VL
B8: humanized monoclonal antibody HuCC49 (parental HuCC49) (antibody, V domains shown)
VH: B2 VH
VL: B1 VL
B9: HuCC49 variant ^97L1,2 (antibody, V domains shown)
VH: B2 VH
VL: B1 VL with L29V, G33S, Q35S, A59T, T103S

Biological target: mouse anti-idiotypic MAb AI49-1 (γ-subset)
Assay: competition RIA vs ^125I-murine CC49 on adsorbed AI49-1

Binder	fold more competitor for 50% inhibition than HuCC49 [fold]
B1	4 to 15

Biological target: mouse anti-idiotypic MAb AI49-3 (β-subset)
Assay: competition RIA vs ^125I-murine CC49 on adsorbed AI49-3

Binder	fold more competitor for 50% inhibition than HuCC49 [fold]
B1	4 to 15

Biological target: anti-CC49 variable region (anti-idiotypic) antibodies in the serum of patient three
Assay: HPLC size exclusion; 5 µg cold competitor + ^125I-HuCC49 + patient serum; less complex = more competition

Binder	percent of complexes [%]
B2	9.8
B3	2.7
B4	3.7
B5	12.6
B1	12.7
B6	22.4
B7	3.3
B8	2.6

Biological target: anti-CC49 variable region (anti-idiotypic) antibodies in the serum of patient five
Assay: as above

Binder	percent of complexes [%]
B2	14.3
B3	2.4
B4	4.6
B5	20.2
B1	36.6
B6	46.7
B7	3.5
B8	3

Biological target: anti-CC49 variable region (anti-idiotypic) antibodies in the serum of patient four
Assay: as above

Binder	percent of complexes [%]
B2	10.1
B3	4.4
B4	8.2
B5	19.4
B1	24.7
B6	37.6
B7	7
B8	0.5

Biological target: anti-CC49 variable region (anti-idiotypic) antibodies in the serum of patient six
Assay: as above

Binder	percent of complexes [%]
B2	16
B3	2.7
B4	7.3
B5	24.6
B1	32.7
B6	34.8
B7	10.2
B8	0

Biological target: anti-CC49 variable region (anti-idiotypic) antibodies in the serum of patient two
Assay: as above

Binder	percent of complexes [%]
B2	16.9
B3	3
B4	6.7
B5	15.7
B1	29.7
B6	33.5
B7	5.8
B8	1.5

Biological target: anti-CC49 variable region (anti-idiotypic) antibodies in the serum of patient one
Assay: as above

Binder	percent of complexes [%]
B2	12.2
B3	3.4
B4	5.1
B5	24.5
B1	32.5
B6	48.2
B7	3.9
B8	0

Biological target: anti-CC49 variable region (anti-idiotypic) antibodies in the serum of patient three
Assay: HPLC size exclusion; ^125I-HuCC49 + patient serum, no competitor

Binder	percent of complexes [%]
B8	24.5

Biological target: anti-CC49 variable region (anti-idiotypic) antibodies in the serum of patient five
Assay: as above

Binder	percent of complexes [%]
B8	42.9

Biological target: anti-CC49 variable region (anti-idiotypic) antibodies in the serum of patient four
Assay: as above

Binder	percent of complexes [%]
B8	56.8

Biological target: anti-CC49 variable region (anti-idiotypic) antibodies in the serum of patient six
Assay: as above

Binder	percent of complexes [%]
B8	33.5

Biological target: anti-CC49 variable region (anti-idiotypic) antibodies in the serum of patient two
Assay: as above

Binder	percent of complexes [%]
B8	32.2

Biological target: anti-CC49 variable region (anti-idiotypic) antibodies in the serum of patient one
Assay: as above

Binder	percent of complexes [%]
B8	46.2

Biological target: TAG72 positive bovine submaxillary mucin (BSM) (bovine)
Assay: relative affinity constant from competition RIA on BSM

Binder	fold less than the Ka of HuCC49 [fold]
B2	2
B9	2 to 3
B5	2
B1	300

Biological target: anti-idiotypic antibodies to MAb CC49 in the serum of one patient (not named, Example V)
Assay: HPLC size-exclusion competition: cold competitor vs ^125I-HuCC49 for complex formation with patient serum

Binder	fold better competition than parental HuCC49 [fold]
B3	2

Biological target: anti-CC49 variable region (anti-idiotypic) antibodies in the serum of patient two
Assay: HPLC competition, serial dilutions of cold competitor vs ^125I-HuCC49 with serum of patient two

Binder	amount of competitor for 25% competition [ng]
B8	60
